This note sets out measurements from patent US9453060B2, “Protein engineered systems for delivery of molecules” (New York University, priority 2013, dated 2016).

The nature of series [1]: Curcumin binding/loading to protein.
The nature of series [2]: CD spectroscopy temperature scan (melting temperature). Type of series: physicochemical. The conditions noted are these: CD at 222 nm. The protocol:
CD spectroscopy. The secondary structure of CSP/COMPcc was analyzed using a Jasco J-815 spectrometer at 10 μM protein concentration in 50 mM Tris-HCl buffer pH 8.0. The wavelength scans were performed at 4° C. over a range of 200-250 nm with a 1 nm step size. Temperature scans were performed at 222 nm from 20° C. to 85° C. with temperature ramp of 1° C./min The observed ellipticity value (Θ) was converted into mean residue ellipticity (MRE) using the standard equation ΘMRE=Θ/(10 cpl) where c is the molar concentration of the protein, p is the path length in centimeters and l is the number of amino acids. The fraction folded was derived using equation F=(ΘA−ΘU)/(ΘN−ΘU), where, ΘA is the MRE observed at given temperature, ΘU is MRE value for completely unfolded protein and ΘN is the MRE value of completely folded protein that is considered at 25° C. The first derivative of fraction folded was used to calculate melting temperature (Tm) of protein. All data were represented as an average of three trials.

For series [3], the system named is MCF7. Put plainly: β-galactosidase gene transfection across different cell lines. In kind it is cell-based.
Series [4] can be described thus: Doxorubicin binding/loading to protein.
Series [5] concerns MC3T3-E1 cells. Put plainly: Cell viability by MTT assay. In kind it is cell-based, mouse. As for the experimental part: Cell viability studies. The cells were seeded in 96-well plate at a density of […] in αMEM with 10% FBS and incubated at 37° C. with 5% CO2 overnight. The cytotoxicity of different complexes was evaluated by 3-(4,5-dimethylthiazol-2-yl)-2,5-diphenyl […] bromide, MTT assay. Approximately 10 μL of MTT reagent from 5 mg/mL stock was added to each well and incubated for 4 hours at 37° C. with 5% CO2. After incubation, the entire medium was aspirated and 100 μL of dimethyl sulfoxide was added to each well. The change in absorbance of colored solution was observed using a microplate reader Synergy HT at 570 nm. The percent cell viability was calculated by normalizing the observed absorbance value to that of the control cells without any treatment. The data was represented as the average of quadruplicates±standard deviation.
For orientation: Tetrazolium assays rely on reduction of a dye to a coloured formazan, in cell work by metabolically active cells.

The test system of series [6] is β-galactosidase plasmid DNA. Description: Electrophoretic mobility shift assay (gel retardation) of protein binding to plasmid DNA. To be noted: protein to DNA w/w ratio 18:1. Background: In EMSA bound probe runs differently from free probe, usually more slowly.
Protocol: The β-galactosidase plasmid DNA (5.1 kb) at a concentration of 50 ng was mixed with different concentrations of CSP and COMPcc and incubated at room temperature for 30 minutes. The mixtures were run on 1% agarose gel (stained with ethidium bromide) and imaged under UV light using ImageQuant (GE healthcare).

B1: CSP: engineered supercharged coiled-coil protein, SEQ ID NO:1; COMPcc with eight solvent-exposed residues mutated to arginine (protein)
chain: MRGSHHHHHHGSGRLRPQMLRELQRTNAALRDVRELLRQQVKEITRLKNTVRRSRASGKLN
modifications: supercharged coiled-coil protein
notes: COMPcc with eight solvent-exposed residues mutated to arginine
Turning to B1, in series [1], the curcumin loading was determined as 63%. Besides, in series [2], the “decrease in the melting temperature (Tm) in comparison to the parent COMPcc” value was 10 °C. Also, in series [3], the “β-galactosidase gene transfection (in words)” value is given as “drastic increase in transfection”. This molecule also returned a doxorubicin loading in series [4] of 31%. The “cytotoxicity (in words)” value in series [5] is “not cytotoxic”.

B2: COMPcc: cartilage oligomeric matrix protein coiled-coil, parent protein, SEQ ID NO:2 (protein)
chain: MRGSHHHHHHGSGDLAPQMLRELQETNAALQDVRELLRQQVKEITFLKNTVMESDASGKLN
modifications: supercharged coiled-coil protein
In turn, B2 came in with a curcumin loading in series [1] of 64%. Also, in series [6], the “DNA shift at higher protein to DNA ratio” value is reported as “negligible DNA shift”. In addition, the doxorubicin loading in series [4] was determined as 26%.
